Test results taken from publication PMC6510816.

Tests used:
YAP [1] = target: YAP (UniProt P46937); test: Flag-14-3-3ζ co-IP, YAP blot; conditions: reference: Flag-14-3-3ζ wild type; sites S37
YAP [2] = target: YAP (UniProt P46937); test: His-YAP Ni-NTA pull-down of Flag-14-3-3ζ IPs; conditions: reference: wild type with rERK2; sites S37

Row | Substance | binding against the reference (YAP [1]) | binding against the reference (YAP [2])
1 | 14-3-3ζ (from UniProt P63104) Flag-14-3-3ζ S37A | stronger | 
2 | 14-3-3ζ (from UniProt P63104) S37A with rERK2 |  | gained
